Experiment: yeast display, Sf9 membrane polyspecificity reagent, FACS + sequencing; frameworks hold sequencing errors
Outline: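 A nanobody's polyreactivity label depends on the gate it was sorted from. Yeast display cells were stained with 10% biotinylated, detergent-solubilized Sf9 membrane reagent for 1 hour at 4 °C, enriched on streptavidin microbeads and sorted by FACS. The low and high (top ~1%) gates were set on anti-HA fluorescence for expression and streptavidin fluorescence for reagent binding.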

Sequence | polyreactivity (PSR sort gate)
QVQLVESGGGLVQAGGSLRLSCPASGRIFYIYTMGWYRQAPGKERELVASITYNGGSTYYADSVKGRFTISRDNAKNTVYLQMNSLKPEDTAVYYCNANSRSPTYRYRSWPYNYWGQGTQVTVSS | high polyreactivity
QVQLVESGGGLVQAGGSLRLSCPASGRIIGGNAMGWYRQAPGKEREFVAAIRASGGSTHYADSVKGRFTISRDNAKNTVYLQMNSLKPEDTAVYDCNALSRNTHLYDYWGQGTQVTVSS | high polyreactivity
QVQLVESGGGLVQAGGSLRLSCPASGRIVANAMGWYIQAPGKERELVAAISSVGSTNYADSVKGRFTISRDNAKNTVYLQMNSLKPEDTAVYYCAARGYRWYIAVDFWGQGTQVTVSS | low polyreactivity
QVQLVESGGGLVQAGGSLRLSCPASGRIYGYYVMGWYRQAPGKERELVASITSGGSTYYADSVKRRFTISRDNAKYTVYFQMNSLKPEDTAVYDCAARRAWSWKIYDYWGQGTQVTVSS | high polyreactivity
QVQLVESGGGLVQAGGSLRLSCPASGRTFDYNAMGWYRQAPGKERELVAAITSSGGSTYYADSVKGRFTISRDNAKNTVYLQMNSLKPEDSAVYYCATDGQSPYYIYYWGQGTQVTVSS | low polyreactivity
QVQLVESGGGLVQAGGSLRLSCPASGRTFSSYAMGWYRPAPGKERELVAAISRRGGSTYYADSVKGRFTISRDNAKNTVYLKMNSLKPEDTAVYYCAADVYKQYGYYYWGQGSQVTVSS | high polyreactivity
QVQLVESGGGLVQAGGSLRLSCPASGRTMGGNAMGWYRQAPGKEREFVARISTRGVRKYYADSVKGRFTISRDNAKNTVYLQMNSLKPEDTAVYYCAKHVSYGHIGAYPDRDSWGQGTQVTVSS | low polyreactivity
QVQLVESGGGLVQAGGSLRLSCPASGSIFDFYAMGWYRQAPGKERELVAAIDDIDDSTYYADSVKGRFTISRDNAKNTVYLQMNSLKPEDTAVYDCAAELRPGYRSSYGLIYDYWGQGTQVTVSS | low polyreactivity
QVQLVESGGGLVQAGGSLRLSCPASGSIFRSYAMGWYRPAPGKERELVASISRRGGSSYYADSVKGRFTISRDNAKNTVYLQMNSLKPEDTAVYYCAAVRYNSRGSTTPSEMYYWGQGTQVTVSS | low polyreactivity
QVQLVESGGGLVQAGGSLRLSCPASGSIFSLNAMGWSRQAPGKERELVAASGGGSTYYADSVKGRFTISRDNAKNTVYLQMNSLKPEDTAVYYCAARVLTDELDYWGQGTQVTVSS | low polyreactivity
QVQLVESGGGLVQAGGSLRLSCPASGSIFYSYAMGWYRQAPGKERELVAAISWDASTYYADSVKGRFTISRDNAKNTVYLQMNSLKPEYTAVYYCNAVYRVWYAEWSTVGSPHDYWGQGTQVTVSS | low polyreactivity
QVQLVESGGGLVQAGGSLRLSCPASGSTFRYYAMAWYRQAPGKERELVAGISSSGGSTYYADSVKGRFTISRDNAKNTVYLQMNSLKPEDTAVYYCNAARGTSRSLAVFADYDYWGQGTQVTVSS | high polyreactivity
QVQLVESGGGLVQAGGSLRLSCPASGSTYLIYAMGWYRQAPGKERELVARITSTGSTYYADSVKRRFTISRDNAMNTVYLHMNSLKPEDTAVYYCNAAGYQYYWHYYWGQGTQVTVSS | low polyreactivity
QVQLVESGGGLVQAGGSLRLSCPATGSTFGSYAMAWYRPAPGKERELVADISSRGASTYYADSVKGRFTISRDNAKNTVYLQMNSLKPEDTAVYYCARDVYIWYGYGYFPEYEYWGQGTQVTVSS | low polyreactivity
QVQLVESGGGLVQAGGSLRLSCSASGFTFEEYAMGWYRQAPGKERELVAAIDYTVGSTYYADSVKGRFTISRDNAKNTVYLQINSLKPEDTAVYYCNVDLSYSFNSAYGYWGQGTQVSVSS | low polyreactivity
QVQLVESGGGLVQAGGSLRLSCSASGFTIYYYTMGWYRQAPGKERELVAAITRSGGRTYYADSVKGRFTISRDNSKNTVYLQMISLKPEDPAVYYCAASTYNNFWYLGYGYWGQGTQVTVSS | high polyreactivity

Sequence | polyreactivity (PSR sort gate)
QVQLVESGGGLVQAGGSLRLSCSASGGTFRYYTMVWYRKAPGKERELVAAITRGGRTYYADSVKGRFTISRDNAKNTVYLQMNSLKPEDTAVYYCAAVRPRSPVSYENDYWGQGTQVTVSS | high polyreactivity
QVQLVESGGGLVQAGGSLRLSCSASGLIFRYYAMGWYRQAPGKEREFVAAISGRGASTYYADSVKGRFTISRDNSKNTVYLQMNSLKPEDTAVYYCATYFPSAVVAFHMEYWGQGTQVTVSS | low polyreactivity
QVQLVESGGGLVQAGGSLRLSCSASGLTLAPNAMGWYRQAPGKERELVAAITRSGGDTYYADSVKGRFTISRDNAKNTVYLQMNSLKPEDTAVYYCAADYWFRYGTYEYWGQGTQVTVSS | high polyreactivity
QVQLVESGGGLVQAGGSLRLSCSASGRTFKVYAMGWYRQAPGKERELVAAISYSGAGTRYADSVKGRFTISRDNAKNTVYLQMNSLKPEDTAVYYCNTDAWARVKRYEYWGQGTQVTVSS | low polyreactivity
QVQLVESGGGLVQAGGSLRLSCSASGRTFYSYAMGWYRQPRGKERELVATIRRGGRTNYADSVKGRFTISRDNAKNTVYLLMNSLKPEDTAVYYCAAEDYRSLVTSTYDYWGQGTQVAVSS | low polyreactivity
QVQLVESGGGLVQAGGSLRLSCSASGSIFDGYAMGWYRQAPGKEREIVAAISKGGTRTYYADSVMGRFTISRDNAKNTVYLQMNSLKPEDTAFYYCNAYYRREPDDGDYDYWGQGSQVTVSS | high polyreactivity
QVQLVESGGGLVQAGGSLRLSCSASGSIFSGNTMGWYRQAPGKERELVAAISGGGSTNYADSVKGRFTISRDNAKNTVYLQMNSLKPEDTAVYYCAKDLSLGASRMDYWGQGTQVTVSS | low polyreactivity
QVQLVESGGGLVQAGGSLRLSCSASGSIIGHNAMGWYRQAPGKEREIVAAITWRGSNTYYADSVKGRFTISRDNAKNTVYLQMNSLKPEDTAVYYCAAEFYYRTQWYYYWGQGTQVTVSS | high polyreactivity
QVQLVESGGGLVQAGGSLRLSCSASGSTFEGYAMGWYRQAPGKERELVAAITSTGSTNYADSVKGRFTISRDNAKNTVYLQMNSLKPEDTAVYYCAGYPGRVYYFLGHDYWVQGTQVTVSS | low polyreactivity
QVQLVESGGGLVQAGGSLRLSCSASGSTFESNAMGWYRQAPGKERELVASISGSGGSTFYADSVKGRFTISRDNAKNTVYLQMISLKPEDTAVYYCAAYKEPYYEEYGYWGQGTQVTVSS | low polyreactivity
QVQLVESGGGLVQAGGSLRLSCSASGSTFGRNSMGRYRQAPGKEREVVAAISWRSTRTYYADSVKGRFTISRDHAKNTVDLQMNSLKPEDNAGYYCAVYYFYPSTNCYHYDYWGQGTQVTVSS | high polyreactivity
QVQLVESGGGLVQAGGSLRLSCSASGSTFGRYAMGWYRQAPGKERELVAAISARGGSTYYADSVKGRFTISRDNAKNTVYLQMNSLKPEDTAVYYCNVDYLLHGGRFDYWGQGTQVTVSS | high polyreactivity
QVQLVESGGGLVQAGGSLRLSCSASGSTFRQYAMGWYRQAPGKERELVAAITWRGDNTYYADSVKGRFTISRDNAKNTVYLQMNSLKPEDTADYYCGARWSYRLYWGYGYWGQGTQVTVSS | low polyreactivity
QVQLVESGGGLVQAGGSLRLSCSASGSTFYPYAMGWYRQAPGKERELVAAISSGGSTSYADSVKGRFTISRDNAKNTVYLQMNSLKPEDTAVYYCNASSPGAVPVYDYDYWGQGTQVTVSS | low polyreactivity
QVQLVESGGGLVQAGGSLRLSCSASGYTFAWYAMGWYRQAPGKERELVAAITVSGGSTYYADSVKGRFTISRDNAKNTVYLQMNSLKPEDTAVYYCAADYAPLDLYQVSTVYSSGDYWGQGTQVTVSS | low polyreactivity
